The values that follow come from patent publication US20230118307A1, “THERAPEUTIC USE OF LONG-ACTING CONJUGATE OF TRIPLE AGONIST HAVING ACTIVITIES TO ALL OF GLUCAGON/GLP-1/GIP RECEPTORS FOR LUNG DISEASE” (HANMI PHARM. CO., LTD., priority 2020, published 2023).

Common to all, as to experiment: cell-based or functional assay
For one assay, the target named is human GLP-1 receptor (human, UniProt P43220 24-463).
A further assay concerns the target human GCG receptor (human, UniProt P47871 26-477).
The target in another assay is T1, human GIP receptor (human, UniProt P48546 22-466).
T1 sequence (looked up): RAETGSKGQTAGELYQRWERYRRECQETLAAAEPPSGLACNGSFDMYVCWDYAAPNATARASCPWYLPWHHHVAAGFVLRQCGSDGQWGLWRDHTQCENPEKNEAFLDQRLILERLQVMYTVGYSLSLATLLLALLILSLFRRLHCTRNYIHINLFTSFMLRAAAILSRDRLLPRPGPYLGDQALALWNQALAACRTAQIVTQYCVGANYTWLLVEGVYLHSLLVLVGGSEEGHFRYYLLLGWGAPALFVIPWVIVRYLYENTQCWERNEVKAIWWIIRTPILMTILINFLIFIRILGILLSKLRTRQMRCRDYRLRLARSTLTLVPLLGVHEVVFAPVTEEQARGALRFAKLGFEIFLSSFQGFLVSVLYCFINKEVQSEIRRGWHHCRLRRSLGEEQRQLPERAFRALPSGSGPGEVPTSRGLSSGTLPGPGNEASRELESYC

Positions of bridges follow the written chain, without caps; N, C: chain ends. Non-standard residues stand in square brackets, D forms with d. No end group written: not given here. *: point of attachment. Acetyl(2-(4-imidazolyl)) = O=C(Cc1c[nH]cn1)*; Aib = CC(C)(N)C(=O)O Bounds are passed on as bounds.

Sequence of human GCG receptor (P47871 26-477): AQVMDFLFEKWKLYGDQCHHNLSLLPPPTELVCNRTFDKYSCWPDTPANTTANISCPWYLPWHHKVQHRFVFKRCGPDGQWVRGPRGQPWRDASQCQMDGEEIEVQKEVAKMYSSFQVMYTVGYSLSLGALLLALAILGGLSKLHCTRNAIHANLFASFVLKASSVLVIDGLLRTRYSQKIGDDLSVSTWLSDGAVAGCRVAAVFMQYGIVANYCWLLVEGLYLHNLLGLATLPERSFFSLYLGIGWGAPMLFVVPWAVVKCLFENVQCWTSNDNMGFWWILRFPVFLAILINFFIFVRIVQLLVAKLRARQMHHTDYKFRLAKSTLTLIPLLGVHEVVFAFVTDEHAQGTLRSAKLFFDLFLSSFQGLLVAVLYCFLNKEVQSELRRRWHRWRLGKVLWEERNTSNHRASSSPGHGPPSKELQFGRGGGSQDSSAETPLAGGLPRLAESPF

B1: triple agonist of SEQ ID NO: 98 (peptide)
peptide: Y[Aib]QGTFTSDYSKALDEKAAKEFVNWLLDHHPSSGQPPPSC
modifications: bridge 16-20
On to B1, for which the “In vitro Activity Compared to Native Peptide (%) vs. GLP-1” value with human GLP-1 receptor came to 28.1%. In addition, the “In vitro Activity Compared to Native Peptide (%) vs. Glucagon” value in the assay with human GCG receptor was 8.2%. Further, in the assay with human GIP receptor, the “In vitro Activity Compared to Native Peptide (%) vs. GIP” value worked out at 47.1%.

B2: triple agonist of SEQ ID NO: 89 (peptide)
peptide: [Acetyl(2-(4-imidazolyl))][Aib]QGTFTSDYSKYLDEKRQKEFVQWLLDTKC
modifications: bridge 16-20
For the molecule B2, the “In vitro Activity Compared to Native Peptide (%) vs. GLP-1” value in the assay with human GLP-1 receptor stood at 7.1%. For the same molecule, the “In vitro Activity Compared to Native Peptide (%) vs. Glucagon” value in the assay with human GCG receptor turned out to be 0.7%. Besides, in the assay with human GIP receptor, the “In vitro Activity Compared to Native Peptide (%) vs. GIP” value is less than 0.1%.

B3: triple agonist of SEQ ID NO: 10 (peptide)
peptide: H[Aib]QGTFTSDVSKYLDGQAAQEFVAWLLAGGGPSSGAPPPSC
In the case of B3, the “In vitro Activity Compared to Native Peptide (%) vs. GLP-1” value with human GLP-1 receptor was 46%. Besides, in the assay with human GCG receptor, the “In vitro Activity Compared to Native Peptide (%) vs. Glucagon” value is less than 0.1%. Besides, in the assay with human GIP receptor, the “In vitro Activity Compared to Native Peptide (%) vs. GIP” value was less than 0.1%.

B4: triple agonist of SEQ ID NO: 85 (peptide)
peptide: [Acetyl(2-(4-imidazolyl))][Aib]QGTFTSDYSIAMDEIHQKDFVNWLLAQC
modifications: bridge 16-20
In the case of B4, in the assay with human GLP-1 receptor, the “In vitro Activity Compared to Native Peptide (%) vs. GLP-1” value stood at 4.3%. In addition, the “In vitro Activity Compared to Native Peptide (%) vs. Glucagon” value with human GCG receptor is less than 0.1%. Besides, in the assay with human GIP receptor, the “In vitro Activity Compared to Native Peptide (%) vs. GIP” value worked out at 0.3%.

B5: triple agonist of SEQ ID NO: 9 (peptide)
peptide: H[Aib]QGTFTSDVSKYLDGQAAQEFVAWLLAGC
B5: the “In vitro Activity Compared to Native Peptide (%) vs. GLP-1” value in the assay with human GLP-1 receptor amounted to 32.1%. Further, in the assay with human GCG receptor, the “In vitro Activity Compared to Native Peptide (%) vs. Glucagon” value was found to be 0.13%. Moreover, the “In vitro Activity Compared to Native Peptide (%) vs. GIP” value with human GIP receptor is less than 0.1%.

B6: triple agonist of SEQ ID NO: 83 (peptide)
peptide: [Acetyl(2-(4-imidazolyl))][Aib]EGTFTSDYSIAMDEIHQKDFVNWLLAQC
modifications: bridge 16-20
Regarding B6, in the assay with human GLP-1 receptor, the “In vitro Activity Compared to Native Peptide (%) vs. GLP-1” value came to 47.3%. The “In vitro Activity Compared to Native Peptide (%) vs. Glucagon” value with human GCG receptor amounted to 1.3%. The “In vitro Activity Compared to Native Peptide (%) vs. GIP” value with human GIP receptor turned out to be 0.4%.

B7: triple agonist of SEQ ID NO: 95 (peptide)
peptide: Y[Aib]QGTFTSDYSKYLDEKRAKEFVQWLLCHHPSSGQPPPS
modifications: bridge 16-20
As to B7, the “In vitro Activity Compared to Native Peptide (%) vs. GLP-1” value with human GLP-1 receptor stood at 2.1%. The “In vitro Activity Compared to Native Peptide (%) vs. Glucagon” value in the assay with human GCG receptor was 0.4%. In addition, the “In vitro Activity Compared to Native Peptide (%) vs. GIP” value with human GIP receptor is less than 0.1%.

B8: triple agonist of SEQ ID NO: 86 (peptide)
peptide: [Acetyl(2-(4-imidazolyl))][Aib]QGTFTSDYSKYLDEKRQKEFVNWLLAQC
modifications: bridge 16-20
For the molecule B8, in the assay with human GLP-1 receptor, the “In vitro Activity Compared to Native Peptide (%) vs. GLP-1” value stood at 28.4%. Besides, the “In vitro Activity Compared to Native Peptide (%) vs. Glucagon” value with human GCG receptor turned out to be 0.4%. Moreover, in the assay with human GIP receptor, the “In vitro Activity Compared to Native Peptide (%) vs. GIP” value was 0.2%.

B9: triple agonist of SEQ ID NO: 88 (peptide)
peptide: [Acetyl(2-(4-imidazolyl))][Aib]QGTFTSDYSKYLDEKRQKEFVQWLLNTKC
modifications: bridge 16-20
B9: the “In vitro Activity Compared to Native Peptide (%) vs. GLP-1” value in the assay with human GLP-1 receptor came to 9.6%. The “In vitro Activity Compared to Native Peptide (%) vs. Glucagon” value with human GCG receptor is 0.3%. The “In vitro Activity Compared to Native Peptide (%) vs. GIP” value in the assay with human GIP receptor is less than 0.1%.

B10: triple agonist of SEQ ID NO: 99 (peptide)
peptide: Y[Aib]QGTFTSDYSKALDEKAAKDFVNWLLDHHPSSGQPPPSC
modifications: bridge 16-20
As for B10, the “In vitro Activity Compared to Native Peptide (%) vs. GLP-1” value in the assay with human GLP-1 receptor was found to be 20.9%. Further, in the assay with human GCG receptor, the “In vitro Activity Compared to Native Peptide (%) vs. Glucagon” value came out at 14.9%. Moreover, in the assay with human GIP receptor, the “In vitro Activity Compared to Native Peptide (%) vs. GIP” value was 57.7%.

B11: triple agonist of SEQ ID NO: 84 (peptide)
peptide: [Acetyl(2-(4-imidazolyl))][Aib]EGTFTSDYSIAMDEIHQKDFVDWLLAEC
modifications: bridge 16-20
In the case of B11, in the assay with human GLP-1 receptor, the “In vitro Activity Compared to Native Peptide (%) vs. GLP-1” value turned out to be 4.2%. Further, in the assay with human GCG receptor, the “In vitro Activity Compared to Native Peptide (%) vs. Glucagon” value is less than 0.1%. Also, the “In vitro Activity Compared to Native Peptide (%) vs. GIP” value in the assay with human GIP receptor was less than 0.1%.

B12: triple agonist of SEQ ID NO: 93 (peptide)
peptide: [Acetyl(2-(4-imidazolyl))][Aib]QGTFTSDYSKYLDEKRQKEFVNWLLAQKC
modifications: bridge 16-20
As to B12, in the assay with human GLP-1 receptor, the “In vitro Activity Compared to Native Peptide (%) vs. GLP-1” value was determined as 5.7%. Besides, the “In vitro Activity Compared to Native Peptide (%) vs. Glucagon” value with human GCG receptor stood at 0.3%. For the same molecule, the “In vitro Activity Compared to Native Peptide (%) vs. GIP” value with human GIP receptor amounted to 0.7%.

B13: triple agonist of SEQ ID NO: 97 (peptide)
peptide: Y[Aib]QGTFTSDYSKYLDEKRAKEFVQWLLDCHPSSGQPPPS
modifications: bridge 16-20
Turning to B13, the “In vitro Activity Compared to Native Peptide (%) vs. GLP-1” value in the assay with human GLP-1 receptor was found to be 10.5%. Besides, in the assay with human GCG receptor, the “In vitro Activity Compared to Native Peptide (%) vs. Glucagon” value came to 62.8%. Besides, in the assay with human GIP receptor, the “In vitro Activity Compared to Native Peptide (%) vs. GIP” value turned out to be 2.6%.

B14: triple agonist of SEQ ID NO: 94 (peptide)
peptide: [Acetyl(2-(4-imidazolyl))][Aib]QGTFTSDYSIAMDEIHQKDFVNWLLNTKC
modifications: bridge 16-20
Turning to B14, the “In vitro Activity Compared to Native Peptide (%) vs. GLP-1” value with human GLP-1 receptor stood at 0.5%. In addition, the “In vitro Activity Compared to Native Peptide (%) vs. Glucagon” value with human GCG receptor was less than 0.1%. Further, in the assay with human GIP receptor, the “In vitro Activity Compared to Native Peptide (%) vs. GIP” value is less than 0.1%.

B15: triple agonist of SEQ ID NO: 87 (peptide)
peptide: [Acetyl(2-(4-imidazolyl))][Aib]QGTFTSDYSIAMDEIHQKDFVNWLLNTC
modifications: bridge 16-20
With B15, in the assay with human GLP-1 receptor, the “In vitro Activity Compared to Native Peptide (%) vs. GLP-1” value is 0.9%. Moreover, the “In vitro Activity Compared to Native Peptide (%) vs. Glucagon” value with human GCG receptor is less than 0.1%. For the same molecule, the “In vitro Activity Compared to Native Peptide (%) vs. GIP” value with human GIP receptor was less than 0.1%.

B16: triple agonist of SEQ ID NO: 91 (peptide)
peptide: [Acetyl(2-(4-imidazolyl))][Aib]EGTFTSDYSIAMDEIHQKDFVDWLLAEKC
modifications: bridge 16-20
Consider B16, for which the “In vitro Activity Compared to Native Peptide (%) vs. GLP-1” value with human GLP-1 receptor was 31.9%. In the assay with human GCG receptor, the “In vitro Activity Compared to Native Peptide (%) vs. Glucagon” value was determined as 16.8%. Also, the “In vitro Activity Compared to Native Peptide (%) vs. GIP” value with human GIP receptor worked out at 0.3%.

B17: triple agonist of SEQ ID NO: 92 (peptide)
peptide: [Acetyl(2-(4-imidazolyl))][Aib]QGTFTSDYSIAMDEIHQKDFVNWLLAQKC
modifications: bridge 16-20
For B17, the “In vitro Activity Compared to Native Peptide (%) vs. GLP-1” value in the assay with human GLP-1 receptor is 0.8%. The “In vitro Activity Compared to Native Peptide (%) vs. Glucagon” value in the assay with human GCG receptor was less than 0.1%. For the same molecule, in the assay with human GIP receptor, the “In vitro Activity Compared to Native Peptide (%) vs. GIP” value was 0.4%.

B18: triple agonist of SEQ ID NO: 82 (peptide)
peptide: [Acetyl(2-(4-imidazolyl))][Aib]QGTFTSDYSKYLDEKRQKEFVQWLLDTC
modifications: bridge 16-20
As for B18, the “In vitro Activity Compared to Native Peptide (%) vs. GLP-1” value in the assay with human GLP-1 receptor amounted to 9.5%. The “In vitro Activity Compared to Native Peptide (%) vs. Glucagon” value with human GCG receptor came to 1.1%. Moreover, in the assay with human GIP receptor, the “In vitro Activity Compared to Native Peptide (%) vs. GIP” value was less than 0.1%.

B19: triple agonist of SEQ ID NO: 96 (peptide)
peptide: Y[Aib]QGTFTSDYSKYLDEKRAKEFVQWLLDHCPSSGQPPPS
modifications: bridge 16-20
With B19, in the assay with human GLP-1 receptor, the “In vitro Activity Compared to Native Peptide (%) vs. GLP-1” value was 34.4%. In addition, the “In vitro Activity Compared to Native Peptide (%) vs. Glucagon” value with human GCG receptor worked out at 195%. For the same molecule, in the assay with human GIP receptor, the “In vitro Activity Compared to Native Peptide (%) vs. GIP” value was 5.2%.

B20: triple agonist of SEQ ID NO: 90 (peptide)
peptide: [Acetyl(2-(4-imidazolyl))][Aib]EGTFTSDYSIAMDEIHQKDFVNWLLAQKC
modifications: bridge 16-20
Take B20: the “In vitro Activity Compared to Native Peptide (%) vs. GLP-1” value with human GLP-1 receptor was found to be 7.4%. The “In vitro Activity Compared to Native Peptide (%) vs. Glucagon” value with human GCG receptor is less than 0.1%. The “In vitro Activity Compared to Native Peptide (%) vs. GIP” value with human GIP receptor was less than 0.1%.
